Literature values, collected in US10487153B2, “Carbonic anhydrase IX-specific antibodies and uses thereof” (National Research Council of Canada, priority 2015, dated 2019).

Target: T1, CA-IX (Homo sapiens, UniProt Q16790)
T1 construct: host or cells: patients' own tumour tissue (endogenous)
Conditions: >6-year span; compared to a placebo; cited from earlier work

In the case of “cG250: chimeric version of anti-CA-IX mAb G250, developed as a therapeutic antibody”, the “disease-free survival rate of patients” value is listed as “not improve the disease-free survival rate”.
